# Test results from IntAct's records for PubMed 19363481.
# B1: DNA repair protein rad60 (Schizosaccharomyces pombe (strain ATCC 38366 / 972)), Q9USX3 (parent)
# chain: MDNLDEDDLAFFSKPIKKPPLNYAKQLIASSSDSEEESELDTNKQALEHINAQKNITHNENKSAEPLSRQSTILDADEGNQDVSDTTPNACLNEGRHSPKSAISCVTQPVSPVYNTRAAANLRNNSINSEAALSTTSSLLDDDFARRLEEIDRQVQEFEKSSSDMDVQIHTHKREIEEDDDNTSADVPLLKHSKSDHSTLYHSKSEFSTNEPVISVVLQLAVIGQRIPNSNISLPRDWEAPLFFKVKSNQQFRRVRIAYSERKKVDNVVLVFQNQRLWDYGTPKGAGMLKVDTRLVVHAYCHSDFISLKRIKELEVEKLSSVTEDSTAQTCKLITLLLRSSKSEDLRLSIPVDFTVKDLIKRYCTEVKISFHERIRLEFEGEWLDPNDQVQSTELEDEDQVSVVLD
# partner: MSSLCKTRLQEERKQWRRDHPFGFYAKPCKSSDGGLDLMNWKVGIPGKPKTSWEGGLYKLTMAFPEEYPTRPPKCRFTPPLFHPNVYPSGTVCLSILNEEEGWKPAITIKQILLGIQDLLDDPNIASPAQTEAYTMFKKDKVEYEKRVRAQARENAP
# Variants of: B1
# Settings: with ubc9_schpo hus5, P40984
row,Variant,effect of a mutation on the interaction
1,MDNLDEDDLAFFSKPIKKPPLNYAKQLIASSSDSEEESELDTNKQALEHINAQKNITHNENKSAEPLSRQSTILDADEGNQDVSDTTPNACLNEGRHSPKSAISCVTQPVSPVYNTRAAANLRNNSINSEAALSTTSSLLDDDFARRLEEIDRQVQEFEKSSSDMDVQIHTHKREIEEDDDNTSADVPLLKHSKSDHSTLYHSKSEFSTNEPVISVVLQLAVIGQRIPNSNISLPRDWEAPLFFKVKSNQQFRRVRIAYSERKKVDNVVLVFQNQRLWDYGTPKGAGMLKVDTRLVVHAYCHSDFISLKRIKELEVEKLSSVTEDSTAQTCKLITLLLRSSKSEDLRLSIPVDFTVKDLIKRYCTEVKISFHERIRLEFRGEWLDPNDQVQSTELEDEDQVSVVLD [E380R],disrupting interaction
